Values quoted from earlier work in PMC3150215.
Read-outs that look alike come from different tables or passages of the source.

Experiments:
[1] = molecular target: Capping protein (Mus musculus) (UniProt P47753)
[2] = molecular target: Capping protein (Mus musculus) (UniProt P47753); remark: listed apart in the source

Row | Substance | Kd [1] [nM] | Kd [2] [nM]
1 | CD2AP 474-513 (from UniProt Q9Y5K6) | 6 | –
2 | CARMIL CBR115 CBR115 (from UniProt Q6EDY6) | – | 1.5
